We go through 2 substances from patent US5948653.

This data set has as its target RecA (Escherichia coli?) (UniProt P0A7G6). Briefly: cell_activity.

RecA (Escherichia coli?), sequence (P0A7G6 2-353): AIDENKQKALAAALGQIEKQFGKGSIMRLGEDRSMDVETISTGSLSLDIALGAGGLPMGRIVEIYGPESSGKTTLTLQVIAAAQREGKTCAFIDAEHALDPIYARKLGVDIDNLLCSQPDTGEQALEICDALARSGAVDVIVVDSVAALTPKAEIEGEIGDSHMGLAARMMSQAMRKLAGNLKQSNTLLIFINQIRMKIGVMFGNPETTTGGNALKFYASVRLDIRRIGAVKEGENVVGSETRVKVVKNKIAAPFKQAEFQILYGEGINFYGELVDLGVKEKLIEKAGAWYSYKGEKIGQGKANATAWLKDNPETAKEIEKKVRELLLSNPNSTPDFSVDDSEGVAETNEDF

Regarding “CFTR 491-nt fragment (exon 10 and flanking introns) ; CFTR deltaF508 genomic locus”, the activity (homologous replacement after microinjection of RecA-coated DNA) was more than 0.00025 frequency.

The substance lacZ 276-mer probe ; pMC1lacXpA came in with an activity (blue NIH3T3 cells (6/168), 0% without RecA, D-loop also seen on agarose gel) of 3.6%.
